Source: the supplement of paper PMC10126150
± gives the standard deviation of the averaged measurements.

System: ATP
Test: switch fluorescence ratio, 500 uM ATP over buffer (Cy3 cluster intensity, sum of 5 cycles each) (fold (ratio)); higher = stronger signal-on switching upon ATP binding; sequences stand for … in TCGTCGGCAGCGTCAGATGTGTATAAGAGACAGTTTTTTTTTTTTTTTTTTTTTTTTT…TC
Conditions: aptamer strand: ATP DNA aptamer (quencher-CACCTGGGGGAGTATTGCGGAGGAAGG + anchor), 100 nM annealed; ATP concentration: 500 uM
In short: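 Exposure to 500 uM ATP lasted 15 min at 22 °C before imaging, and a selection-buffer image was taken beforehand, for Cy3-labelled switching-strand clusters on a modified Illumina MiSeq flow-cell annealed to 100 nM quencher-labelled ATP aptamer. Five buffer/ATP cycles were run with NaOH stripping and re-annealing between them. The fluorescence ratio per cluster is summed target-cycle over summed buffer-cycle Cy3 intensity, averaged per switch-domain sequence. Clusters outside 100-1000 RFU were excluded.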

| Sequence | switch fluorescence ratio |
| --- | --- |
| CTGGGGTCGG | 1 ± 0.052 |
| CGATCCGGGA | 0.9982 ± 0.006 |
| AAGACTCTGG | 0.973 ± 0.044 |
| GTTAAGAAAG | 1.01 ± 0.012 |
| ATCTTTTGAG | 0.97588 ± 0.00047 |
| AGGGAGAGTT | 1.02 ± 0.017 |
| TCTGGGACGT | 0.9824 ± 0.0033 |
| GCTGATACTT | 1.07 ± 0.02 |
| CTCGTTGTGG | 1.25 ± 0.37 |
| TTTTTTTATT | 1 ± 0.03 |
| CCGGTCAGCC | 1.11 ± 0.039 |
| AAGTTAACTT | 0.9883 ± 0.0087 |
| GACGACGTGT | 1.43 ± 0.35 |
| TTATTCTGTT | 0.976 ± 0.047 |
| ATCCGTTTTT | 1 ± 0.016 |
| CGGGGGATCT | 1.01 ± 0.038 |
| CCTGTCAGGC | 1.04 ± 0.026 |
| TCAAAAGGGG | 1.06 ± 0.092 |
| CAAGGCAAGG | 1.07 ± 0.018 |
| ACTTTGGGTT | 1.01 ± 0.023 |
| TATGGTGGGG | 0.986 ± 0.034 |
| AAGGAGTGAC | 1.05 ± 0.06 |
| GCTGATGCGG | 0.999 ± 0.012 |
| TGCAATATAT | 1.14 ± 0.01 |
| TGGGGTTGTG | 0.987 ± 0.031 |

| Sequence | switch fluorescence ratio |
| --- | --- |
| GGGGCTCTGT | 1 ± 0.012 |
| GCTTTTTTTT | 1.01 ± 0.019 |
| ATCGAATTGG | 0.998 ± 0.026 |
| TTGCTTGGGC | 1.02 ± 0.04 |
| GGGCATTGTT | 1.02 ± 0.043 |
| ATCTCCTGCC | 1.475 ± 0.0051 |
| ATGTTAGGTT | 1 ± 0.029 |
| AGGGGTGCTA | 0.9996 ± 0.0095 |
| CCGTTGTGGA | 1.038 ± 0.0027 |
| TTGACCGCTG | 1.16 ± 0.03 |
| ATGGGAGGCG | 0.982 ± 0.043 |
| CCGGGGTGGT | 1.07 ± 0.035 |
| AGAAAATTAG | 1.02 ± 0.039 |
| TTACTAGATG | 1.02 ± 0.021 |
| AAGATTATTT | 0.989 ± 0.074 |
| AGAGAGGGGC | 0.971 ± 0.014 |
| ACGTATGGCT | 0.973 ± 0.021 |
| CAAATGTGCT | 0.986 ± 0.015 |
| TGGGTTTTAT | 0.9954 ± 0.0094 |
| TCTATAATGT | 0.965 ± 0.025 |
| TGAGCCGCGG | 1.004 ± 0.0095 |
| GAGAGGGTCA | 0.98 ± 0.025 |
| TGATAATGGG | 0.982 ± 0.036 |
| ACGGGATTAA | 1.04 ± 0.051 |
| GAAGTCGTAG | 0.96 ± 0.039 |

| Sequence | switch fluorescence ratio |
| --- | --- |
| CGCGGGTTGC | 1.06 ± 0.042 |
| GTGGCGGTG | 0.985 ± 0.014 |
| CGATAATGTG | 0.9727 ± 0.0063 |
| ATAAGGCCCG | 1.04 ± 0.078 |
| TTGAAATTAC | 1.03 ± 0.065 |
| GATAAGATGG | 0.979 ± 0.034 |
| ACACGGTCTA | 1.01 ± 0.04 |
| AGATATCCGC | 1.15 ± 0.05 |
| AGCATGAGAT | 1.03 ± 0.039 |
| GGGGACGGAT | 1.04 ± 0.052 |
| AGTTGAGTTT | 0.992 ± 0.026 |
| GTGCGAAATC | 1.25 ± 0.033 |
| TCGGAGATTT | 0.97302 ± 0.00083 |
| GGATGACCTA | 0.976 ± 0.021 |
| CGTAGGTAAT | 1.01 ± 0.04 |
| CTGATTTTAG | 1.02 ± 0.071 |
| ATCGATGCTT | 0.979 ± 0.012 |
| AATGGGGTTA | 0.997 ± 0.023 |
| ATCGGCTCTG | 0.991 ± 0.043 |
| GCGTGGGTTG | 0.998 ± 0.048 |
| GGCAATTCTC | 3.9 ± 0.31 |
| TAGGTACCAG | 0.984 ± 0.025 |
| GGTGTAGGCG | 0.969 ± 0.039 |
| AAGTTGGGGA | 0.996 ± 0.021 |
| GATATGGGGG | 1.01 ± 0.03 |

| Sequence | switch fluorescence ratio |
| --- | --- |
| GGTTGTTTGG | 0.989 ± 0.02 |
| TAATTTTAAA | 0.988 ± 0.018 |
| GTTACAGGTC | 1.006 ± 0.0019 |
| CGGGTTTTGG | 1.01 ± 0.034 |
| CTCATTAAGG | 1.01 ± 0.016 |
| GTCTTCATGG | 0.989 ± 0.02 |
| GCGGGGATCT | 1.038 ± 0.0091 |
| ATGAGGCAGT | 1.12 ± 0.039 |
| TATGCGCAGA | 1.01 ± 0.03 |
| TGGGGTGGGT | 1 ± 0.039 |
| CCTAGGGAAG | 0.9972 ± 0.0046 |
| TGATGTCTAG | 0.967 ± 0.021 |
| TTCAGGGTTT | 1.5 ± 0.9 |
| TGGGTCAAAG | 0.9881 ± 0.0088 |
| TTGAATGTTT | 0.992 ± 0.059 |
| CGGGTAAACG | 0.964 ± 0.079 |
| AACATTTTTC | 1.01 ± 0.021 |
| CGCTTAGCCA | 1.01 ± 0.021 |
| ACGTATGAAA | 1.09 ± 0.059 |
| ACCATGACGG | 1.044 ± 0.0092 |
| TTTTTCGATA | 1.06 ± 0.029 |
| AATAAGCTGG | 0.984 ± 0.033 |
| CATCTGCGTT | 1.58 ± 0.11 |
| GGGTTATGTT | 0.977 ± 0.024 |
| GGTAGAAAGG | 1.03 ± 0.093 |

| Sequence | switch fluorescence ratio |
| --- | --- |
| AGAATCTTTC | 1.05 ± 0.071 |
| GTTGTGGTTA | 1.02 ± 0.015 |
| CGGCAGGCAC | 1.21 ± 0.037 |
| GGTTTTTTTT | 0.992 ± 0.03 |
| ACATGATGTT | 1 ± 0.028 |
| GGGCTGGTTT | 0.981 ± 0.02 |
| AGAGACGAAT | 1.013 ± 0.0085 |
| CTACAAAAAA | 1.02 ± 0.034 |
| AATGGTTCTC | 0.985 ± 0.022 |
| GAGGCGGCGG | 1.067 ± 0.0051 |
| GCGTAAAGGA | 1.02 ± 0.015 |
| TATCTGGTAG | 1 ± 0.025 |
| TCAAAACGGC | 1.07 ± 0.15 |
| GGCCATTGTG | 0.982 ± 0.023 |
| AGGCTAACGA | 1.015 ± 0.0049 |
| TGACCGCTTT | 1.12 ± 0.029 |
| TTGATCGGTG | 0.999 ± 0.023 |
| TTGGGTCTGG | 0.965 ± 0.02 |
| GGGGTCGGTG | 0.969 ± 0.03 |
| GGTGCATGTG | 0.9713 ± 0.0013 |
| ACCGGCGGTT | 1.01 ± 0.032 |
| CAGTGAGGGA | 0.9804 ± 0.004 |
| TTTAGGGTGA | 1.05 ± 0.028 |
| GCTCATAGCA | 1.02 ± 0.022 |
| GCCAGTGTTT | 1.02 ± 0.056 |

| Sequence | switch fluorescence ratio |
| --- | --- |
| AAGAAGTTTG | 0.9879 ± 0.0049 |
| AAATCGTACG | 0.988 ± 0.048 |
| GGGGGTGCAT | 0.9638 ± 0.0088 |
| GTGTGTAGGG | 0.999 ± 0.039 |
| ATGGCACCGG | 1.018 ± 0.0069 |
| TTGGGGGG | 1.004 ± 0.0069 |
| GTGTGTTTGC | 1.004 ± 0.0058 |
| TATTCAGGGA | 1.02 ± 0.02 |
| CGTTGCATTG | 1.03 ± 0.017 |
| CTCTTTCTAC | 2.05 ± 1.3 |
| CATGGGGTAA | 0.99 ± 0.014 |
| TCAGGAGGGC | 0.999 ± 0.016 |
| AAGGCGGGCT | 0.98942 ± 7e-05 |
| TAGGGAAATT | 1.04 ± 0.021 |
| CGTCTAAGTC | 1.01 ± 0.046 |
| AAAATTTGGG | 1.02 ± 0.025 |
| AGAGGAGGTG | 1.02 ± 0.03 |
| TTCATTTACA | 1.04 ± 0.033 |
| CCTGGAAGCG | 1.08 ± 0.045 |
| TGATTATGGA | 0.995 ± 0.045 |
| TCAAGTTTTC | 0.987 ± 0.034 |
| GTGAGATATT | 0.989 ± 0.043 |
| ATAATTTGAT | 0.983 ± 0.023 |
| AAGTTTTTGG | 1.01 ± 0.03 |
| TGACCTCTTA | 0.992 ± 0.024 |

| Sequence | switch fluorescence ratio |
| --- | --- |
| AGATATCAAC | 1.04 ± 0.021 |
| GCCGTCGGCA | 1 ± 0.017 |
| AGTGTGTTTT | 0.996 ± 0.015 |
| AATTTTAAGC | 0.967 ± 0.041 |
| GTTCGGTGGA | 1 ± 0.041 |
| GGTGTCGTG | 0.98 ± 0.024 |
| TTATTGGGCC | 1.01 ± 0.026 |
| TAGAGACTAA | 0.979 ± 0.029 |
| TGTAAAAACG | 1.01 ± 0.056 |
| CTGAGATCTC | 1.02 ± 0.011 |
| ATTTGTTGTG | 1.01 ± 0.041 |
| TTTCTGGCGA | 1.054 ± 0.01 |
| ATCGGTCGGG | 1.011 ± 0.0088 |
| TTGGTTACGG | 1.014 ± 0.0041 |
| GGCTGTAAGT | 0.9844 ± 0.0066 |
| GAATAGGTAT | 0.99505 ± 0.00011 |
| CGCATTTAGT | 1.12 ± 0.0063 |
| GCTGAGGTGA | 1.02 ± 0.042 |
| ATCAGGGCGG | 0.9887 ± 0.0089 |
| CTTTTGAGAC | 1.02 ± 0.053 |
| GGATTGGGCA | 1.01 ± 0.021 |
| TCGGGCGGGG | 1.036 ± 0.0098 |
| GTCGGAGGGG | 0.982 ± 0.043 |
| AGATTTTTCG | 1.04 ± 0.024 |
| GACCATTTGT | 0.995 ± 0.033 |

| Sequence | switch fluorescence ratio |
| --- | --- |
| ATAAGTGAAA | 1.07 ± 0.15 |
| ATTTAATATG | 0.97 ± 0.011 |
| GGTGCGTTCT | 1 ± 0.043 |
| TCGGTCGACG | 0.962 ± 0.027 |
| TATCGGTAGC | 1.017 ± 0.0025 |
| TAGCTGGGGC | 1.02 ± 0.037 |
| ATCAAAGCGG | 0.998 ± 0.0094 |
| TATTTCGGGA | 0.994 ± 0.026 |
| GGGAGGGGTG | 1.02 ± 0.064 |
| CACAGTGTCA | 1.01 ± 0.027 |
| TACTGATTTG | 1.02 ± 0.017 |
| AAAGAAATTA | 0.997 ± 0.042 |
| ACTATATTGG | 1.065 ± 0.0095 |
| GTGTTGGTTG | 0.982 ± 0.038 |
| TTATTAATT | 0.997 ± 0.028 |
| CAGAGGTGCG | 0.969 ± 0.056 |
| GAGATTGAGG | 1.02 ± 0.038 |
| GATCGAGGGG | 1.05 ± 0.1 |
| GGGGGTGTAA | 0.986 ± 0.018 |
| AACTCGTTCT | 1.01 ± 0.011 |
| GTAAACGGGT | 0.963 ± 0.016 |
| ATGGGGAAAT | 0.984 ± 0.021 |
| CACTACGGCC | 1.04 ± 0.043 |
| TGGTGCATGG | 1.03 ± 0.024 |
| AAAAATTAAG | 1.03 ± 0.029 |
